Biological target: the molecule itself
Assay: cell-based or functional assay

B1: recombinant human prohibitin 1 (PHB1), C-terminally histidine-tagged, wild type (natural protein, UniProt P35232 1-272, looked up)
chain: MAAKVFESIGKFGLALAVAGGVVNSALYNVDAGHRAVIFDRFRGVQDIVVGEGTHFLIPWVQKPIIFDCRSRPRNVPVITGSKDLQNVNITLRILFRPVASQLPRIFTSIGEDYDERVLPSITTEILKSVVARFDAGELITQRELVSRQVSDDLTERAATFGLILDDVSLTHLTFGKEFTEAVEAKQVAQQEAERARFVVEKAEQQKKAAIISAEGDSKAAELIANSLATAGDGLIELRKLEAAEDIAYQLSRSRNITYLPAGQSVLLQLPQ
  OPA1-mediated liposome fusion (FRET lipid mixing; 0.5 μM L-OPA1 with 2 μM PHB1 against L-OPA1 alone; fusion activity from the first 2 min): ~3 fold

Reference: PMC11760825, “Prohibitin 1 tethers lipid membranes and regulates OPA1-mediated membrane fusion” (The Journal of Biological Chemistry, 2024)
